Experiment [1] has as its target T1, Human TNF-β (human, UniProt P01374 35-205).
T1 construct: also called human TNFB
T1 sequence (looked up): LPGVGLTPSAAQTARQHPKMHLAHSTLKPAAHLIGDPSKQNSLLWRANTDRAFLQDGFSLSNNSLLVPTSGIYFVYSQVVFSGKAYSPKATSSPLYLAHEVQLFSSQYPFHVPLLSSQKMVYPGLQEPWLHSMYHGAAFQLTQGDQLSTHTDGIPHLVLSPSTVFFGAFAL
Put plainly: cross-reactivity binding, B of B/N; - denotes no binding/neutralisation activity observed.

For experiment [2], the target named is Pig TNFα (pig, UniProt P23563 77-232). Described as above.
Experiment [3] has as its target T2, Rat TNFα (rat, UniProt P16599 80-235).
T2 sequence (looked up): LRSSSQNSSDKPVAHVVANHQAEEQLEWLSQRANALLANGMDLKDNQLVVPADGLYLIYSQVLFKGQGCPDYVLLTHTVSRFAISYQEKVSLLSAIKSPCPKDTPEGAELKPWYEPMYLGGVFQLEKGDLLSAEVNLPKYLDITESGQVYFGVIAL
The description is as above.

For experiment [4], the target named is T3, Rabbit TNFα (rabbit, UniProt P04924 80-235, limits assumed).
T3 sequence (looked up): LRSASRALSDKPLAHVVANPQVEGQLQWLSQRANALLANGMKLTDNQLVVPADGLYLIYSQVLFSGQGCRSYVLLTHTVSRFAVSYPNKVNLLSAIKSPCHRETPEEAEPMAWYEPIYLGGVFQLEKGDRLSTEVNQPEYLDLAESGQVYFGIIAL
The description is as above.

Experiment [5] deals with T4, Mouse TNF-alpha (mouse, UniProt P06804 80-235).
T4 construct: also called mouse TNFα
T4 sequence (looked up): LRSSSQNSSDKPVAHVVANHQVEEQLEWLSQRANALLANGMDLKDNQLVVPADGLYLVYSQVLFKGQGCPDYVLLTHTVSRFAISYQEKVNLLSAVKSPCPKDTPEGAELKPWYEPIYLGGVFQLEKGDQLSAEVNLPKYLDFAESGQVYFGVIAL
The description is as above.

The target in experiment [6] is T5, human Tumour Necrosis Factor alpha (human, UniProt P01375 77-233).
T5 construct: Amine-coupled to the chip for BIAcore, biotinylated on streptavidin sensors for Octet, coated at 1 µg/ml for ELISA; also called hTNFα; rhTNFα
As to the kind of experiment: binding ELISA on human TNF-alpha, OD 450. (In an ELISA, binding on a coated surface is turned into a signal by an enzyme label.)

In experiment [7] the target is T6, human serum albumin (human, UniProt P02768 25-609).
T6 construct: also called HSA
Put plainly: binding ELISA on human serum albumin (HSA), OD 450.

Experiment [8] concerns the target T5, human Tumour Necrosis Factor alpha. As to the kind of experiment: kinetics on hTNFα; instrument (BIAcore T200 or Octet) not stated for this column.
Experiment [9] shares this target. As to the kind of experiment: binding ELISA on TNFα (Anti-TNF NAR Dimers Binding ELISA, post dialysis), absorbance at 450 nm.
Experiment [10] has the same target. Put plainly: BLI, Octet RED96, biotinylated hTNF-α on streptavidin sensors, top concentration 1 µM.
The target in experiment [11] is T7, mouse ICOS ligand (mouse, UniProt Q9JHJ8 47-279, limits assumed).
T7 construct: it may be the same Fc chimera as m48; also called mICOSL
T7 sequence (looked up): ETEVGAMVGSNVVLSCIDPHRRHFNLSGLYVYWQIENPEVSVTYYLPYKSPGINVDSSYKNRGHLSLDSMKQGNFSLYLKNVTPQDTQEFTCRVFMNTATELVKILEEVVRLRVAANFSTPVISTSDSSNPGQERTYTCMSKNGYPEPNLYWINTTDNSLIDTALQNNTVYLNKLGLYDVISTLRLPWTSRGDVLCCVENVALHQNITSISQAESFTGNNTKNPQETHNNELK
As to the kind of experiment: mICOSL neutralisation assay (lower right panel): blocking of mICOSL binding to its CHO-expressed receptor, absorbance at 450 nm.

In experiment [12] the target is T8, human ICOS ligand (human, UniProt O75144 19-258, limits assumed).
T8 construct: also called hICOSL
T8 sequence (looked up): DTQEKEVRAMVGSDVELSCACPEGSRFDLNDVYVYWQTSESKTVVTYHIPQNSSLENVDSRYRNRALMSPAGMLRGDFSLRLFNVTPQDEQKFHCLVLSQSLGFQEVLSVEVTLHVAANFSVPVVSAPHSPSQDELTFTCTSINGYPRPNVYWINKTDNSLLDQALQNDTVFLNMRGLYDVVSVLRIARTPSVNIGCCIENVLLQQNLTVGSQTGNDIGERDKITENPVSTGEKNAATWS
As to the kind of experiment: hICOSL neutralisation assay (lower left panel): blocking of hICOSL binding to its CHO-expressed receptor, absorbance at 450 nm.

Experiment [13] has as its target T5, human Tumour Necrosis Factor alpha. As to the kind of experiment: binding ELISA on 1 µg/ml hTNF-α, absorbance at 450 nm.

What is called koff is the rate constant with which the complex falls apart. Lower therefore signals slow dissociation. For orientation: EC50 (read off the curve) means the concentration giving half of the maximal effect. Read a low EC50 (read off the curve) as higher potency in that assay. The term Kd denotes the constant that tells how readily two partners part at equilibrium. A high value points to weaker binding.

A value given as a limit tells only on which side of the number the result lay.

T5 sequence (P01375 77-233 limits assumed): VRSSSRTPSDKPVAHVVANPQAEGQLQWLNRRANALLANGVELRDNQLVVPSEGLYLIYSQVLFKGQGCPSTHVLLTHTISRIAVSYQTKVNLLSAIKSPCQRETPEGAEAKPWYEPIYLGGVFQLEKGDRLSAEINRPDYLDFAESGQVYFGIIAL
Sequence of Pig TNFα (P23563 77-232 limits assumed): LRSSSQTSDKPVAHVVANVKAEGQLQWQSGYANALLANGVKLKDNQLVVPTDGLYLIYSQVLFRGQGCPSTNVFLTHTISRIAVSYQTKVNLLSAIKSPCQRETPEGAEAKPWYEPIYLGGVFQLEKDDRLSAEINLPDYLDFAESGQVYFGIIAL

B1: TNF VNAR D1 (VNAR)
VNAR: ARVDQTPQTITKETGESLTINCVLRDSHCATSSTYWYRKKSGSTNEESISKGGRYVETVNSGSKSFSLRINDLTVEDSGTYRCASECQYGLAEYDVYGGGTVVTVNA
notes: Nurse shark VNAR single domain; also called VNAR D1 (wt); VNAR anti-hTNFa-D1
For B1, the binding result in experiment [1], in [2], in experiment [3], in experiment [4] and in [5] was “no binding” in each case.

B2: TNF S17-Quad-X™ (Fc fusion)
chain: ASVNQTPRTATKETGESLTINCVLTDTHAKVFTTSWFRKNPGTTDWERMSIGGRYVESVNKGAKSFSLRIKDLTVADSATYICRAGGYLSQPRVYWDVYGAGTVLTVNGGGGSGGGGRTEPRGPTIKPCPPCKCPAPNLLGGPSVFIFPPKIKDVLMISLSPIVTCVVVDVSEDDPDVQISWFVNNVEVHTAQTQTHREDYNSTLRVVSALPIQHQDWMSGKEFKCKVNNKDLPAPIERTISKPKGSVRAPQVYVLPPPEEEMTKKQVTLTCMVTDFMPEDIYVEWTNNGKTELNYKNTEPVLDSDGSYFMYSKLRVEKKNWVERNSYSCSVVHEGLHNHHTTKSFSRTPGKGGGGSGGGGSGGGGSGGGGSGAHSASVNQTPRTATKETGESLTINCVLTDTHAKVFTTSWFRKNPGTTDWERMSIGGRYVESVNKGAKSFSLRIKDLTVADSATYICRAGGYLSQPRVYWDVYGAGTVLTVN
notes: S17, mouse IgG2a Fc and S17 in one chain; also called S17-Fc-S17; S17-Fc-S17 (Quad-X™)
Take B2: the binding result in experiment [6] and in [7] was “no binding (tested: 5 µg/ml)” each time.

B3: TNF VNAR D1-BA11-B4 (VNAR)
chain: ARVDQTPQTITKETGESLTINCVLRDSHCATSSTYWYRKKSGSTNEESISKGGRYVETVNSGSKSFSLRINDLTVEDSGTYRCASECQYGLAEYDVYGGGTVVTVNGGGGSGGGGSGGGGSGGGGSGAHSTRVDQSPSSLSASVGDRVTITCVLTDTSYPLYSTYWYRKNPGSSNKEQISISGRYSESVNKGTKSFTLTISSLQPEDSATYYCRAMSTNIWTGDGAGTKVEIKGGGGSGGGGSGGGGSGGGGSGAHSARVDQTPQTITKETGESLTINCVLRDSNCALSSMYWYRKKSGSTNEESISKGGRYVETVNSGSKSFSLRINDLTVEDSGTYRCKVYIPCIDELVYMISGGTSGPIHDVYGGGTVVTVNHHHHHHHEQKLISEEDL
notes: Tandem VNAR trimer with anti-HSA BA11 in the middle, His and Myc tags
In turn, B3 had a koff in experiment [8] of roughly 0.0006 s⁻¹.

B4: TNF VNAR DIMER D1-D1 (VNAR)
chain: ARVDQTPQTITKETGESLTINCVLRDSHCATSSTYWYRKKSGSTNEESISKGGRYVETVNSGSKSFSLRINDLTVEDSGTYRCASECQYGLAEYDVYGGGTVVTVNGGGGSGGGGGSGAHSARVDQTPQTITKETGESLTINCVLRDSHCATSSTYWYRKKSGSTNEESISKGGRYVETVNSGSKSFSLRINDLTVEDSGTYRCASECQYGLAEYDVYGGGTVVTVNAAAHHHHHHGAAESKLISEEDL
For the molecule B4, in experiment [9], the 50% effective concentration (EC50 (read off the curve)) is roughly 0.009 µg/mL.

B5: BB10 (VNAR)
VNAR: TRVDQSPSSLSASVGDRVTITCVLTDTSYPLYSTYWYRKNPGSSNKEQISISGRYSESVNKGTKSFTLTISSLQPEDFATYYCRAMGTNFWTGDGAGTKVEIK
With B5, the equilibrium dissociation constant (Kd) in experiment [10] is greater than 1 µM.

B6: VNAR-TNFR1 Fc bi-functional construct, Format 2: anti-mICOSL VNAR (CC3) (Fc fusion)
chain: TRVDQTPRTATKETGESLTINCVLTDTEYGLFSTSWFRKNPGTTDWERMSIGGRYVESVNKGAKSFSLRIKDLTVADSATYYCKALGWWPPAFPHWYDGAGTVLTVN
Turning to B6, the “IC50 (read off the curve)” value in experiment [11] was roughly 0.2 µg/mL.

B7: VNAR-TNFR1 Fc bi-functional construct, Format 4: anti-hICOSL VNAR (2D4) (Fc fusion)
chain: TRVDQTPRTATKETGESLTINCVLTDTDYGLFSTSWFRKNPGTTDWERMSIGGRYVESVNKGAKSFSLRIKDLTVADSATYYCKAFTWPWEWPDRWFRPWYDGAGTVLTVN
In the case of B7, the “IC50 (read off the curve)” value in experiment [12] is roughly 0.4 µg/mL.

B8: SoloMER™ VNAR D1-v4 (VNAR)
VNAR: ARVDQSPSSLSASVGDRVTITCVLRDSHCATSSTYWYRKKPGSTNEESISKGGRFSGSGSSGSKSFTLTISSLQPEDFATYYCASECQYGLAEYDVFGQGTKVEIKH
notes: Humanised D1 with His tag
As to B8, the “EC50 (read off the curve)” value in [13] was roughly 0.1 µg/mL.

Source of the values: patent US20250346659A1 (ELASMOGEN, published 2025).
